This experiment deals with Kapβ2 Δloop (human) (UniProt Q92973). As to the kind of experiment: AUC.

Our source for the stoichiometry N values is paper doi:10.1101/2024.07.03.601791.

Usually stoichiometry N stands for the number of molecules, sites or subunits per partner or assembly.

Kapβ2 Δloop (human), sequence (Q92973 9-898, stated change not applied): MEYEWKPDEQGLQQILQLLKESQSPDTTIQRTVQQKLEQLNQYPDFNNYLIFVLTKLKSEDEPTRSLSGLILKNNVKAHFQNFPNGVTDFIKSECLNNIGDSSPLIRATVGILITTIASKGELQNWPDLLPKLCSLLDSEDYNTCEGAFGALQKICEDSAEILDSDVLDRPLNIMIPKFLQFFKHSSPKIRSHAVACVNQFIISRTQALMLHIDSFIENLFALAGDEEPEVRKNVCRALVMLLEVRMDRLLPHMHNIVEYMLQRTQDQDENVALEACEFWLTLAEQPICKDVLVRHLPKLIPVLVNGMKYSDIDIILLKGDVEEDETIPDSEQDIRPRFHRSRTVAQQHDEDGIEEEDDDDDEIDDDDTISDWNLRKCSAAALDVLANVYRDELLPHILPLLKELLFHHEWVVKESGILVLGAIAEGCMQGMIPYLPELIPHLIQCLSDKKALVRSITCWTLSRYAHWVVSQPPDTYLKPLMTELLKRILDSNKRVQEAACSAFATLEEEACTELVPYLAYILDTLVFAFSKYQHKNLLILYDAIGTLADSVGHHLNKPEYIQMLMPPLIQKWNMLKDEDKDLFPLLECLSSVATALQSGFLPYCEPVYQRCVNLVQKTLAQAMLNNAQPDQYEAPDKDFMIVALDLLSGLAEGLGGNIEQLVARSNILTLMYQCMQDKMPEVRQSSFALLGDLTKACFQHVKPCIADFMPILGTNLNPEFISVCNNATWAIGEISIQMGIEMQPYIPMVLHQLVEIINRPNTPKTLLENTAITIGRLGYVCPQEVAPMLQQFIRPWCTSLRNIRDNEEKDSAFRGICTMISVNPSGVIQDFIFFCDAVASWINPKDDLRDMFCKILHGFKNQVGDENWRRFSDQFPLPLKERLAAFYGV

B1: maltose-binding protein (MBP)-PR18 (peptide)
chain: PRPRPRPRPRPRPRPRPRPRPRPRPRPRPRPRPRPR
On to B1, for which the stoichiometry N amounted to 1.
